Assay in all cases: G' assay (10 uM PL peptide), results of TABLE 7 and TABLE 12
Common to all, as to type: binding

For assay [1], the target named is T1, PDZ protein (GST-PDZ fusion) (Homo sapiens, UniProt Q9Y2H9).
T1 construct: made in house; host or cells: E. coli (DH5alpha, BL21 or JM109)
The following applies: PDZ KIAA0973, PDZ Domain 1. The procedure, abridged:
(§1)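 Binding classes derive from A450 nm of bound biotin-tagged PL peptide. A score of 5 needs A450 above 4 in more than two repeats.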

In assay [2] the target is T2, PDZ protein (GST-PDZ fusion) (Homo sapiens, UniProt Q8TEW0).
T2 construct: made in house; host or cells: E. coli (DH5alpha, BL21 or JM109)
T2 sequence (Q8TEW0 whole entry, the tested form may be a part): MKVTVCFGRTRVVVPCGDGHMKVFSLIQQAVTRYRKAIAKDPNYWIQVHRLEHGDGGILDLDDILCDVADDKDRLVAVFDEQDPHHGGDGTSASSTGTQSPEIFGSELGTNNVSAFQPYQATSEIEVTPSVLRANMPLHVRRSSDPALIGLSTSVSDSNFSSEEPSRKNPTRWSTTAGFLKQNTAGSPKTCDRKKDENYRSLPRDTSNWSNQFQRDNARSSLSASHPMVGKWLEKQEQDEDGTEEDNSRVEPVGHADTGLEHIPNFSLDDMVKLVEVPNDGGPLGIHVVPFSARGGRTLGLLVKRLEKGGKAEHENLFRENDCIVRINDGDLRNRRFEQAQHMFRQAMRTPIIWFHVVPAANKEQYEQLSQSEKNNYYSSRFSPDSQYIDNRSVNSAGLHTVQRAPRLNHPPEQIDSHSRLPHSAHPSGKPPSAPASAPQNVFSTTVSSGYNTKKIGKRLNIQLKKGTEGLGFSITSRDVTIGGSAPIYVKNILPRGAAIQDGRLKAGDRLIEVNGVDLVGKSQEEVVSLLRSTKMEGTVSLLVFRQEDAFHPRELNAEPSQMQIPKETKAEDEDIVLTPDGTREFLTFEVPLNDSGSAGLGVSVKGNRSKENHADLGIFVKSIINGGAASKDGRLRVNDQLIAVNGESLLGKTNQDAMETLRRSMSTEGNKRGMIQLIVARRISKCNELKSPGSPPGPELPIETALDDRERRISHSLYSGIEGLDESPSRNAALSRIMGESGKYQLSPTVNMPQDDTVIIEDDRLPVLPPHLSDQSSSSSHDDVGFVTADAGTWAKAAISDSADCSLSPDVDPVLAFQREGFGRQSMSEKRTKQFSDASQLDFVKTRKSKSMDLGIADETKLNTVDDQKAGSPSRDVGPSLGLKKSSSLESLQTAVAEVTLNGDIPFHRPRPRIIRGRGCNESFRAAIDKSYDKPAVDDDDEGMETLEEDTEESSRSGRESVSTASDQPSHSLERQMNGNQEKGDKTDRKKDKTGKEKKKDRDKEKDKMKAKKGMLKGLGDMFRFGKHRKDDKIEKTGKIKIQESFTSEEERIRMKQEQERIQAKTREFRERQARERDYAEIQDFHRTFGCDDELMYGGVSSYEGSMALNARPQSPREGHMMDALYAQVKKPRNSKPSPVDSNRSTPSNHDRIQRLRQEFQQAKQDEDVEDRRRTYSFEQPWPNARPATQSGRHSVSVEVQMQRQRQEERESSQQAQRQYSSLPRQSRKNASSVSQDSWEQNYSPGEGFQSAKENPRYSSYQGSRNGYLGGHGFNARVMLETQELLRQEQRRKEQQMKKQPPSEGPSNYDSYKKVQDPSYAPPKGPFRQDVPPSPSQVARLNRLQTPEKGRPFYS
The following applies: PDZ PAR3, PDZ Domain 3. The procedure, abridged:
as §1

For assay [3], the target named is T3, PDZ protein (GST-PDZ fusion) (Homo sapiens, UniProt Q96JY6).
T3 construct: made in house; host or cells: E. coli (DH5alpha, BL21 or JM109)
T3 sequence (Q96JY6 1-352): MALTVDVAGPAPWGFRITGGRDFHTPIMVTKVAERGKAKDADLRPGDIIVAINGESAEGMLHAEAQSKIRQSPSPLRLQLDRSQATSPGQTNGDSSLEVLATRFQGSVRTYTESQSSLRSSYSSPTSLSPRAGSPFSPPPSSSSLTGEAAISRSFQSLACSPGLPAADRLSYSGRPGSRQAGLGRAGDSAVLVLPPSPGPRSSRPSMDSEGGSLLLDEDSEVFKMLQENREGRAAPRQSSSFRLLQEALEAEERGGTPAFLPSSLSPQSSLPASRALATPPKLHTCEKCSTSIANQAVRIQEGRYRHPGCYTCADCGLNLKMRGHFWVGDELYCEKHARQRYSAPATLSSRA
The following applies: PDZ LIM-Mystique, PDZ Domain 1. The procedure, abridged: as §1

Assay [4] addresses T4, PDZ protein (GST-PDZ fusion) (Homo sapiens, UniProt Q07157).
T4 construct: made in house; host or cells: E. coli (DH5alpha, BL21 or JM109)
The procedure, abridged: as §1

Ends that are not written are not given here. Peptide text beside a SMILES is read from it. * marks the point of attachment. Biotin = O=C1N[C@H]2[C@H](CS[C@H]2CCCCC(=O)*)N1

T4 sequence (Q07157 whole entry, the tested form may be a part): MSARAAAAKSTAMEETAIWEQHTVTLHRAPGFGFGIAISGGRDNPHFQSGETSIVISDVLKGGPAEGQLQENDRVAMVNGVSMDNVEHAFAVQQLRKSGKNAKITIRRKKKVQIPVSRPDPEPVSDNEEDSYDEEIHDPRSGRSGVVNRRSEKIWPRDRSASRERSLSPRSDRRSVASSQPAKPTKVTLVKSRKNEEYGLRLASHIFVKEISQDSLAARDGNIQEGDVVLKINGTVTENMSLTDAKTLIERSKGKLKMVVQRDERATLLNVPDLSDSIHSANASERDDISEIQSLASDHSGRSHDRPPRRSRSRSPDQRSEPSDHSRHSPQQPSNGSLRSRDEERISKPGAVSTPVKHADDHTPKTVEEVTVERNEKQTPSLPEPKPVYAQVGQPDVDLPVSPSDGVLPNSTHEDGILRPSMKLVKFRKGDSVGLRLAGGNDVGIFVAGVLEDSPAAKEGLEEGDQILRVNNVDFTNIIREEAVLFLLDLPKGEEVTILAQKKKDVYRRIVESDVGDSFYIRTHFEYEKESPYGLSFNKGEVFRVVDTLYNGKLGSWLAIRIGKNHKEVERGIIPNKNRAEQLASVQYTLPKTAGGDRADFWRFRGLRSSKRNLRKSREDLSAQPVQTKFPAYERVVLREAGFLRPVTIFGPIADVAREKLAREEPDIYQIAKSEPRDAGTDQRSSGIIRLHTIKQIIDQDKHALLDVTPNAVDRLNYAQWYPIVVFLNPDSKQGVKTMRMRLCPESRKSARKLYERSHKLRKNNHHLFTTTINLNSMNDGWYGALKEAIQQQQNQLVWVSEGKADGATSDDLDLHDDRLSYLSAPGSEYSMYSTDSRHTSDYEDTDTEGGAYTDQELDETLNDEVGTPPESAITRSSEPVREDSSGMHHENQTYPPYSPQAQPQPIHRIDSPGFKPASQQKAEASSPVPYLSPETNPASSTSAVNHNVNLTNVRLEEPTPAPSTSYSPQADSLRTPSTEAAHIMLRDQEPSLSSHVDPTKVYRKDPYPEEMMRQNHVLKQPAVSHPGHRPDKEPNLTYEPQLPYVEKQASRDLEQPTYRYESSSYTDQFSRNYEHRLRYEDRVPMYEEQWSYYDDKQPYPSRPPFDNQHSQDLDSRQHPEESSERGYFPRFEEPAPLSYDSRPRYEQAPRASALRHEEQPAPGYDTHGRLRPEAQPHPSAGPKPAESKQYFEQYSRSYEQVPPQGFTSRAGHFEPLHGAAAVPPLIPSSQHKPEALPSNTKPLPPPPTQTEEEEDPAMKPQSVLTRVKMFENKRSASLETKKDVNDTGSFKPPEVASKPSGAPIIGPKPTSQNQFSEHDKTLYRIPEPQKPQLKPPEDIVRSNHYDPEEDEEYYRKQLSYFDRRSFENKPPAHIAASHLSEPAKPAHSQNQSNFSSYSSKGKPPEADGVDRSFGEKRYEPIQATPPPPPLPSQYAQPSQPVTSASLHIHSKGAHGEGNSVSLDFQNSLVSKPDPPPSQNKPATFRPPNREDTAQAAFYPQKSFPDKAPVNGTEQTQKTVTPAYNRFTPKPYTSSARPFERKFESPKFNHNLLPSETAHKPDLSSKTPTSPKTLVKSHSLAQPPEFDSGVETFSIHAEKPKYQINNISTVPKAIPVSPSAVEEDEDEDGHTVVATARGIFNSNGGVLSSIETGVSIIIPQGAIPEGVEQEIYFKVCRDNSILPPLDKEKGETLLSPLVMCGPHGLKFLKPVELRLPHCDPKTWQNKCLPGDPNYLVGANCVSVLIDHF
T1 sequence (Q9Y2H9 whole entry, the tested form may be a part): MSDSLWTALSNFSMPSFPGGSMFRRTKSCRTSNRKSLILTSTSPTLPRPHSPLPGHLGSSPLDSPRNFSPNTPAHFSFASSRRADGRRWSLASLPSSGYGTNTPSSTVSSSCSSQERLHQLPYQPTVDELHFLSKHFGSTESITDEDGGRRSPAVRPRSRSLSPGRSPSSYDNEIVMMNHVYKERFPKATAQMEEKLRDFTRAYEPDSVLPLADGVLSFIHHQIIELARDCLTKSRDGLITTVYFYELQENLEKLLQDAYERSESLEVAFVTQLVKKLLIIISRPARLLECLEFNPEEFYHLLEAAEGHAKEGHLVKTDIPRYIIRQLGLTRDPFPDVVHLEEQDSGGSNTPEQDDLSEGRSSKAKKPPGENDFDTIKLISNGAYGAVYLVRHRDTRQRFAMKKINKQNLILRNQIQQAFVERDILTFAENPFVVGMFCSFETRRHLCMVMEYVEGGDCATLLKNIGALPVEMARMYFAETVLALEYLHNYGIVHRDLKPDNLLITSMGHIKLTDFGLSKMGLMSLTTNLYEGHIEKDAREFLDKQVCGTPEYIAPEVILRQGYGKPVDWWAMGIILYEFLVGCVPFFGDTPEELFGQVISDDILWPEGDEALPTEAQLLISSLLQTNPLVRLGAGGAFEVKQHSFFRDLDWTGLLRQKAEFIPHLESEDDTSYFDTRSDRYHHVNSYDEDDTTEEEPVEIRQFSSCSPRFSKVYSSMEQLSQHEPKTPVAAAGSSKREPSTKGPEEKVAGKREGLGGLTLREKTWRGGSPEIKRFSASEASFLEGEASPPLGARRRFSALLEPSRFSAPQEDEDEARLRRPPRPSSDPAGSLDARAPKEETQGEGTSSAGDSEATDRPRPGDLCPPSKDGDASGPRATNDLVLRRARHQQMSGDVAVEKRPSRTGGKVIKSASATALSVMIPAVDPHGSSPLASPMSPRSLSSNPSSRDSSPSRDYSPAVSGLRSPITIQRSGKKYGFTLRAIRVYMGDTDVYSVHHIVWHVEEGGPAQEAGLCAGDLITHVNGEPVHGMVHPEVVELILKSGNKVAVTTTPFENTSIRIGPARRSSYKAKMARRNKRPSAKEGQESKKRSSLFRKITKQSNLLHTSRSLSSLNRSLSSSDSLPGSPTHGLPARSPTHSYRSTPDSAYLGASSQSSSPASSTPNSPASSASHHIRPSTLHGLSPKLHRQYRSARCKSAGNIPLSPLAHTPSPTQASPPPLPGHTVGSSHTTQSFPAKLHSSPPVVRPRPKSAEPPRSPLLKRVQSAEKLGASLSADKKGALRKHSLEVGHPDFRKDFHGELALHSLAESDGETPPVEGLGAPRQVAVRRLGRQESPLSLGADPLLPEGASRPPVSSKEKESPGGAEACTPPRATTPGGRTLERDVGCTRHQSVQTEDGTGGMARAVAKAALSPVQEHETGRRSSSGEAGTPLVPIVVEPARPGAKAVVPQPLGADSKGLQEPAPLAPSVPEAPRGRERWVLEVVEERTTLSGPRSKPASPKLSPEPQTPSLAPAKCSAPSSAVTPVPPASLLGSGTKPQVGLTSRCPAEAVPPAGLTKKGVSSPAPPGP

Consider “A2AC_HUMAN (Modified) (Biotin-DFRPSFKHILFRRARRGFRQ; not fully specified)”, for which, in assay [1], the Classification was 3 (A450 nm 2-3).
Still for that read-out and setting: the figure for “PPATPSPRLALPAHHNATRL (Biotin-PPATPSPRLALPAHHNATRL) [Na+/Pi cotransporter 2]” is 2 (A450 nm 1-2).
In the case of “VHDAESSDEDGYDWGPATDL (Biotin-VHDAESSDEDGYDWGPATDL) [zona occludens 3 (ZO-3)]”, the figures for the Classification in assay [2], in assay [3] and in assay [1] were 1 (A450 nm 0-1), 2 (A450 nm 1-2) and 2 (A450 nm 1-2), respectively.
With “ALVLIAFCIIRRRPSAYQAL (Biotin-ALVLIAFCIIRRRPSAYQAL) [CD68]”, the Classification in assay [1] is 1 (A450 nm 0-1).
For the compound `CC[C@H](C)[C@H](NC(=O)CNC(=O)[C@H](CO)NC(=O)[C@H](Cc1ccccc1)NC(=O)[C@@H](NC(=O)[C@H](CS)NC(=O)CNC(=O)CNC(=O)[C@H](C)NC(=O)[C@@H]1CCCN1C(=O)[C@@H](NC(=O)[C@@H]1CCCN1C(=O)CCCC[C@@H]1SC[C@@H]2NC(=O)N[C@@H]21)[C@@H](C)CC)[C@@H](C)O)C(=O)N[C@@H](Cc1ccccc1)C(=O)N1CCC[C@H]1C(=O)N[C@H](C(=O)N[C@@H](CC(C)C)C(=O)N[C@H](C(=O)N[C@@H](CO)C(=O)N1CCC[C@H]1C(=O)N[C@@H](CC(C)C)C(=O)O)[C@@H](C)O)[C@@H](C)O` [KIA 1481] (Biotin-PIPAGGCTFSGIFPTLTSPL-OH; C-terminus assumed), the Classification in assay [1] is given as 2 (A450 nm 1-2).
For `CC[C@H](C)[C@H](NC(=O)[C@H](CC(=O)O)NC(=O)[C@H](CCC(=O)O)NC(=O)[C@H](CCCNC(=N)N)NC(=O)[C@@H](NC(=O)CCCC[C@@H]1SC[C@@H]2NC(=O)N[C@@H]21)[C@@H](C)O)C(=O)N[C@@H](Cc1ccc(O)cc1)C(=O)N[C@H](C(=O)N[C@@H](CC(N)=O)C(=O)N[C@@H](Cc1ccc(O)cc1)C(=O)N1CCC[C@H]1C(=O)N[C@H](C(=O)N[C@@H](Cc1ccccc1)C(=O)N[C@@H](CO)C(=O)N[C@@H](CCCNC(=N)N)C(=O)N[C@@H](CCCNC(=N)N)C(=O)N1CCC[C@H]1C(=O)N[C@@H](CCCCN)C(=O)N[C@H](C(=O)N[C@@H](CCCNC(=N)N)C(=O)N[C@H](C(=O)O)C(C)C)[C@@H](C)O)[C@@H](C)O)C(C)C` [DNAM-1] (Biotin-TREDIYVNYPTFSRRPKTRV-OH; C-terminus assumed), the Classification in assay [4] (PDZ ZO-1, PDZ Domain 1) was 2 (A450 nm 1-2).
For “A2AA_HUMAN (modified) (Biotin-HDFRRAFKKILARGDRKRIV; not fully specified)”, the Classification in assay [4] (PDZ ZO-1, PDZ Domain 2) is on record as 4 (A450 nm 3-4); in assay [2], 2 (A450 nm 1-2); in assay [3], 1 (A450 nm 0-1).
With “GPVPGEPAKPKTSAHHATFV (Biotin-GPVPGEPAKPKTSAHHATFV)”, the Classification in assay [4] (PDZ ZO-1, PDZ Domain 1) was 1 (A450 nm 0-1).
As to “LASKSAEEGKQIPDSLSTDL (Biotin-LASKSAEEGKQIPDSLSTDL) [Dock2]”, in assay [3], the Classification is recorded as 1 (A450 nm 0-1).
On to “KTMPAAMFRLLTGQETPLYI (Biotin-KTMPAAMFRLLTGQETPLYI) [MINT-2]”, for which the Classification in assay [2] is listed as 5 (A450 nm of 4 more than 2× repeated).
With `CC[C@H](C)[C@H](NC(=O)[C@H](Cc1ccc(O)cc1)NC(=O)[C@H](CC(C)C)NC(=O)[C@H](CCC(N)=O)NC(=O)[C@H](Cc1c[nH]cn1)NC(=O)[C@H](CO)NC(=O)[C@H](C)NC(=O)[C@H](CC(C)C)NC(=O)[C@@H](NC(=O)[C@H](CC(=O)O)NC(=O)[C@H](CCSC)NC(=O)[C@H](Cc1ccccc1)NC(=O)[C@@H]1CCCN1C(=O)[C@H](CCCNC(=N)N)NC(=O)[C@@H](NC(=O)[C@H](CC(C)C)NC(=O)[C@H](CC(N)=O)NC(=O)[C@H](CC(=O)O)NC(=O)[C@@H](NC(=O)[C@H](CO)NC(=O)CCCC[C@@H]1SC[C@@H]2NC(=O)N[C@@H]21)[C@@H](C)O)C(C)C)[C@@H](C)O)C(=O)O` [presenilin-2] (Biotin-STDNLVRPFMDTLASHQLYI-OH; C-terminus assumed), the Classification was 1 (A450 nm 0-1) in assay [4] (PDZ ZO-1, PDZ Domain 1) and 5 (A450 nm of 4 more than 2× repeated) in assay [2].
For the compound `CC[C@H](C)[C@H](NC(=O)[C@H](Cc1ccc(O)cc1)NC(=O)[C@@H](NC(=O)[C@@H]1CCCN1C(=O)[C@H](CCC(N)=O)NC(=O)[C@H](CCC(=O)O)NC(=O)[C@H](CCC(N)=O)NC(=O)[C@H](C)NC(=O)[C@@H](NC(=O)[C@H](CC(C)C)NC(=O)[C@H](CC(C)C)NC(=O)[C@H](CCCNC(=N)N)NC(=O)[C@H](Cc1ccc(O)cc1)NC(=O)[C@H](CCSC)NC(=O)[C@H](C)NC(=O)[C@H](C)NC(=O)[C@@H]1CCCN1C(=O)[C@H](CCSC)NC(=O)[C@@H](NC(=O)[C@H](CCCCN)NC(=O)CCCC[C@@H]1SC[C@@H]2NC(=O)N[C@@H]21)[C@@H](C)O)[C@@H](C)O)C(C)C)C(=O)O` [MINT-1] (Biotin-KTMPAAMYRLLTAQEQPVYI-OH; C-terminus assumed), the Classification in assay [4] (PDZ ZO-1, PDZ Domain 1) was 1 (A450 nm 0-1); in assay [2], 5 (A450 nm of 4 more than 2× repeated).
Consider `CC(C)C[C@H](NC(=O)[C@H](Cc1c[nH]c2ccccc12)NC(=O)[C@H](Cc1c[nH]cn1)NC(=O)[C@H](CCCNC(=N)N)NC(=O)[C@H](CC(C)C)NC(=O)[C@@H](NC(=O)[C@H](Cc1ccccc1)NC(=O)[C@H](CCC(N)=O)NC(=O)[C@H](CCCNC(=N)N)NC(=O)[C@@H](NC(=O)[C@H](CCC(=O)O)NC(=O)CNC(=O)[C@H](CCCNC(=N)N)NC(=O)[C@H](CC(=O)O)NC(=O)[C@@H](NC(=O)[C@H](CC(C)C)NC(=O)[C@H](CCC(=O)O)NC(=O)[C@H](CCCNC(=N)N)NC(=O)CCCC[C@@H]1SC[C@@H]2NC(=O)N[C@@H]21)C(C)C)C(C)C)[C@@H](C)O)C(=O)N[C@@H](CCCCN)C(=O)N[C@H](C(=O)O)C(C)C` [Dopamine transporter (Na+-dependent)] (Biotin-RELVDRGEVRQFTLRHWLKV-OH; C-terminus assumed), for which the Classification in assay [4] (PDZ ZO-1, PDZ Domain 2) is listed as 1 (A450 nm 0-1).
Turning to `CC[C@H](C)[C@H](NC(=O)[C@H](CCCCN)NC(=O)[C@@H](NC(=O)[C@H](CO)NC(=O)[C@@H]1CCCN1C(=O)[C@H](Cc1ccccc1)NC(=O)[C@@H](NC(=O)[C@@H](NC(=O)[C@H](CCCNC(=N)N)NC(=O)[C@H](CCC(=O)O)NC(=O)[C@H](CC(C)C)NC(=O)[C@H](CC(C)C)NC(=O)[C@H](CC(C)C)NC(=O)[C@@H](NC(=O)CNC(=O)[C@@H](NC(=O)CCCC[C@@H]1SC[C@@H]2NC(=O)N[C@@H]21)C(C)C)[C@@H](C)O)C(C)C)[C@@H](C)CC)C(C)C)C(=O)N[C@@H](C)C(=O)N[C@H](C(=O)N[C@@H](CC(C)C)C(=O)N[C@H](C(=O)O)C(C)C)[C@@H](C)O` [Adenovirus E4 Type9], in assay [4] (PDZ ZO-1, PDZ Domain 1, PL peptide 10 uM), the Classification is 2 (A450 nm 1-2).
In the case of `CC[C@H](C)[C@H](NC(=O)[C@H](C)NC(=O)[C@H](CC(C)C)NC(=O)[C@H](Cc1c[nH]c2ccccc12)NC(=O)[C@H](Cc1c[nH]cn1)NC(=O)[C@H](CCC(N)=O)NC(=O)[C@H](CC(C)C)NC(=O)[C@H](CCC(N)=O)NC(=O)[C@H](Cc1ccccc1)NC(=O)[C@H](CCC(N)=O)NC(=O)[C@H](CCCNC(=N)N)NC(=O)[C@@H](NC(=O)[C@H](CC(=O)O)NC(=O)[C@H](CCCNC(=N)N)NC(=O)[C@H](CCC(N)=O)NC(=O)[C@H](C)NC(=O)[C@@H](NC(=O)[C@H](CC(C)C)NC(=O)[C@H](Cc1c[nH]cn1)NC(=O)[C@H](Cc1c[nH]cn1)NC(=O)CCCC[C@@H]1SC[C@@H]2NC(=O)N[C@@H]21)C(C)C)[C@@H](C)CC)C(=O)O` [noradrenaline transporter] (Biotin-HHLVAQRDIRQFQLQHWLAI-OH; C-terminus assumed), the Classification in assay [4] (PDZ ZO-1, PDZ Domain 2) was 2 (A450 nm 1-2); in assay [2], 4 (A450 nm 3-4).
`CC(C)C[C@H](NC(=O)CNC(=O)[C@@H](NC(=O)[C@H](CO)NC(=O)[C@H](CC(N)=O)NC(=O)[C@H](Cc1ccccc1)NC(=O)CNC(=O)[C@H](C)NC(=O)[C@H](C)NC(=O)[C@H](Cc1ccccc1)NC(=O)[C@@H](NC(=O)CCCC[C@@H]1SC[C@@H]2NC(=O)N[C@@H]21)[C@@H](C)O)[C@@H](C)O)C(=O)N1CCC[C@H]1C(=O)N[C@@H](Cc1c[nH]cn1)C(=O)N[C@@H](CO)C(=O)N[C@H](C(=O)N[C@H](C(=O)N[C@@H](CCCNC(=N)N)C(=O)N[C@H](C(=O)O)C(C)C)[C@@H](C)O)[C@@H](C)O` [Neuroligin] (Biotin-TFAAGFNSTGLPHSTTRV-OH; C-terminus assumed): in assay [4] (PDZ ZO-1, PDZ Domain 1), the Classification was 1 (A450 nm 0-1).
Regarding “KTMPAATYRLLTGQEQPVYL (Biotin-KTMPAATYRLLTGQEQPVYL) [MINT-3]”, the Classification is reported as 1 (A450 nm 0-1) in assay [2] and 2 (A450 nm 1-2) in assay [1].

These data come from patent US20050282743A1, “Molecular interactions in cells” (Arbor Vita Corporation, priority 2001, published 2005).
